According to patent US20090076249A1 (published 2009):

Legend:
Experiment in all cases: cell-based or functional assay
human CD38 [1] = molecular target: T1, human CD38 (human, UniProt P28907 1-300)
human CD38 [2] = molecular target: T1, human CD38; remark: listed apart in the source
human CD38 [3] = molecular target: T1, human CD38; remark: listed apart in the source
human CD38 [4] = molecular target: T1, human CD38; remark: listed apart in the source

EC50 of ADCC (51Cr release), Daudi-luc target cells (human CD38 [1]) [mg/L]	EC50 of ADCC (51Cr release), fresh MM tumor cells (human CD38 [1]) [mg/L]	EC50 of CDC (PI-positive cells), CD38-CHO cells (human CD38 [2]) [mg/L]	EC50 of CDC (PI-positive cells), Daudi-luc cells (human CD38 [2]) [mg/L]	EC50 of CDC, CHO-CD38 cells (n = 2) (human CD38 [3]) [mg/L]	Log EC50 of ADCC, Daudi target cells (n=5) (human CD38 [4])	Binder
0.0097	0.056	0.24	> 90			-024 (antibody, V domains shown) VH: EVQLVQSGAEVKKPGESLKISCKGSGYSFSNYWIGWVRQMPGKGLEWMGIIYPHDSDARYSPSFQGQVTFSADKSISTAYLQWSSLKASDTAMYYCARHVGWGSRYWYFDLWGRGTLVTVSS VL: EIVLTQSPATLSLSPGERATLSCRASQSVSSYLAWYQQKPGQAPGLLIYDASNRASGIPARFSGSGSGTDFTLTISSLEPEDFAVYYCQQRSNWPLTFGGGTKVEIK
0.009	0.027	3.14	> 90	4.5	1.17	-003 (antibody, V domains shown) VH: not shown VL: DIQMTQSPSSLSASVGDRVTITCRASQGISSWLAWYQQKPEKAPKSLIYAASSLQSGVPSRFSGSGSGTDFTLTISSLQPEDFATYYCQQYNSYPRTFGQGTKVEIK
